Assay results as given in PMC9478404, “Cyclin-dependent kinase-mediated phosphorylation and the negative regulatory domain of transcription factor B-Myb modulate its DNA binding” (The Journal of Biological Chemistry, 2022).

Biological target: T1, B-Myb negative regulatory domain NRD^440–600 (human, UniProt P10244-1 440-600)
T1 construct: human B-Myb (MYBL2), negative regulatory domain, amino acids 440 to 600; source: E. coli, purified (Glutathione Sepharose, Q-sepharose, TEV cleavage, Superdex-75); not shown: GST, N-terminal, cleaved
T1 sequence (P10244 440-600): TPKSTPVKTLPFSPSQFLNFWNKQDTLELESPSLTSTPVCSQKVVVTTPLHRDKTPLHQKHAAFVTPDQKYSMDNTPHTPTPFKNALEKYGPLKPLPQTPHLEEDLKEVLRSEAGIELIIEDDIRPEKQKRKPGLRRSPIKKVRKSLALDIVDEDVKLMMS
Test: ITC; DBD (500 μM) titrated into NRD (50 μM) at 19 °C; 150 mM NaCl, 20 mM Tris, 1 mM BME (pH 8); MicroCal VP-ITC; mean of three technical replicates
Conditions: both partners purified

B1: B-Myb DNA-binding domain (B-Myb^34–183) (domain or fragment)
chain: not shown
notes: Limits 34-183 are printed for 'the DBD alone' in the FP experiment; also called DBD; B-Myb DBD; source: E. coli, purified (Glutathione Sepharose, Q-sepharose, TEV cleavage, Superdex-75); not shown: GST, N-terminal, cleaved
Binder B1 has a Kd of 4.5 µM.
